This note sets out measurements from patent US8003596B2, “P-selectin targeting ligand and compositions thereof” (Astellas Pharma Inc., priority 2003, dated 2011).

Where no end group is shown, it is not given here.

One assay deals with T1, human P-selectin/IgG-Fc (Homo sapiens, UniProt P16109).
T1 construct: purchased R&D Systems Europe Ltd., Abingdon, United Kingdom
Description: Competition assay: displacement of TM11-PO complex from immobilised human P-selectin/IgG-Fc. In kind it is binding. The note with it: competition with TM11-PO; free peptide; read-out: IC50 (affinity for P-selectin). The protocol: (§1) TM11-PO, a tetrameric TM11/strepPO complex described by Molenaar et al. (Blood 100: 3570-3577 (2002)), was freshly prepared by incubating streptavidin-peroxidase (Amersham Life Science, Little Chalfont, United Kingdom) (strep-PO; 8.4 μl, 2.0 μM) and biotin-CDVEWVDVSSLEWDLPC (SEQ ID NO: 2; synthesized by Dr. Vander Zee, Department of Immunology, University of Utrecht, Utrecht, the Netherlands) (TM11-biotin; 1.5 μl 190 mM) for 2 hours at room temperature in assay buffer (20 mM HEPES, 150 mM NaCl, 1 mM CaCl2, pH 7.4). For competition studies, a 96 wells microtiter plate (high binding, flat bottom, Costar, Corning, U.S.A) was coated overnight at 4° C. with 10 μg/ml goat anti-human IgG (Sigma-Aldrich, Zwijndrecht, the Netherlands) in coating buffer (50 mM NaHCO3, pH 9.6). Subsequently, wells were washed with assay buffer and incubated for 1 hour at 37° C. with blocking buffer (3% BSA in assay buffer). After washing with assay buffer the wells were incubated for 2 hours at 37° C. with human P-selectin/IgG-Fc (R&D Systems Europe Ltd., Abingdon, United Kingdom) (0.3 μg/ml). Subsequently, wells were washed with assay buffer and incubated for 1 hour at 4° C. with the TM11-PO complex. The wells were washed six times with washing buffer (0.1% Tween 20 in assay buffer). […] The reaction was halted by addition of 2 M H2SO4 and the absorbance was measured at 450 nm.

For assay [1], the target named is T2, human P-selectin/IgG-Fc (R&D Systems) (human), P16109.
T2 chain: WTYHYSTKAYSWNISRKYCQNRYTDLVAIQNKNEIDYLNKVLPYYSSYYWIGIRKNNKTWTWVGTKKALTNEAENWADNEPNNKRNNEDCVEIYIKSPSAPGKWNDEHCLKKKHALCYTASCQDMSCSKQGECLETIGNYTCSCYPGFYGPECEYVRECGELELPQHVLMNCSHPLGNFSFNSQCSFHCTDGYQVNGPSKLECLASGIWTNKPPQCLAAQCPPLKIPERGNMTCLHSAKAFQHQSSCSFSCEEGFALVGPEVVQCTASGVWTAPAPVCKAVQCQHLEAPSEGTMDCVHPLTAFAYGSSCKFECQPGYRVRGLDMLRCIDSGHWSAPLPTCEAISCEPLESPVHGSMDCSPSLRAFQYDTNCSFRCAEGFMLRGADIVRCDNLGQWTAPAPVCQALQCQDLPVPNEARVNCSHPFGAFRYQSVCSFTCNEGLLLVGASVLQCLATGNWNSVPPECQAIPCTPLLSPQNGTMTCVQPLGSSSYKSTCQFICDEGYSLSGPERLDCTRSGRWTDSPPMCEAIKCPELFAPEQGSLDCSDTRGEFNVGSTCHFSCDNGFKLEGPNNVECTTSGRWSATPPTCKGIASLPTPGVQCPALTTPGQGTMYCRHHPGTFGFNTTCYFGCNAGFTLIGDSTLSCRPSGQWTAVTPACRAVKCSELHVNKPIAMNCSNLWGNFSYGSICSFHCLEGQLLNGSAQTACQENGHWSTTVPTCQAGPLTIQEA
Nature of the assay: competition ELISA against TM11-PO on captured human P-selectin/IgG-Fc. On the technique in general: ELISA stands for enzyme-linked immunosorbent assay.

In assay [2] the target is T3, human P-selectin/IgG-Fc (R&D Systems) (human, UniProt P16109 42-771).
T3 construct: It was captured on plates coated with goat anti-human IgG; not shown: IgG Fc; it was captured by goat anti-human IgG
T3 sequence (looked up): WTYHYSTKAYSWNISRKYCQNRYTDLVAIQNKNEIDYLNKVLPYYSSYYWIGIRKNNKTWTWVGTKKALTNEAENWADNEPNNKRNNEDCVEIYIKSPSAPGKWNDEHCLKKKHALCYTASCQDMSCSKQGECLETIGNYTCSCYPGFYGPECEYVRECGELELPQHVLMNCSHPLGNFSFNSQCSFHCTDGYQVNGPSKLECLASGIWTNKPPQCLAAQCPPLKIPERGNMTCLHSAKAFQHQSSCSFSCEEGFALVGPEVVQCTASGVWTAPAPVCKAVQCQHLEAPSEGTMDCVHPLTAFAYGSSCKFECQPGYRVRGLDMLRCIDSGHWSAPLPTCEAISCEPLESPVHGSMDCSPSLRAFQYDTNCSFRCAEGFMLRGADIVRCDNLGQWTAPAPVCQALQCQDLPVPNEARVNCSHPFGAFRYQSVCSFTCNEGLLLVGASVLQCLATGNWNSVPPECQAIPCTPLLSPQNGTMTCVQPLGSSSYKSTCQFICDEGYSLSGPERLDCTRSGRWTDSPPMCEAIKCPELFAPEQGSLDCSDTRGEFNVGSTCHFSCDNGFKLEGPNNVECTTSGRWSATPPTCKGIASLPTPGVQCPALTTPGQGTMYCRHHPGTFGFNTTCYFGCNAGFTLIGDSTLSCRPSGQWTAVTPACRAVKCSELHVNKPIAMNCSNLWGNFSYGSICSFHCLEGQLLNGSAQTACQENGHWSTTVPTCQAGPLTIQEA
Described as above. The protocol: as §1, with “The affinity of the liposomal drug delivery system prepared in example 2 was evaluated using a competition assay. TM11-PO,” for “TM11-PO,”, “biotin-[…]” for “biotin-CDVEWVDVSSLEWDLPC”, “CaCl_2,” for “CaCl2,”, “NaHCO_3,” for “NaHCO3,”, “complex.” for “complex. The wells were washed six times with washing buffer (0.1% Tween 20 in assay buffer).”, “H_2SO_4” for “H2SO4”

Assay [3] deals with T4, human P-selectin on CHO cells stably transfected with human P-selectin (CHO-P cells) (human, UniProt P16109 42-830).
T4 sequence (looked up): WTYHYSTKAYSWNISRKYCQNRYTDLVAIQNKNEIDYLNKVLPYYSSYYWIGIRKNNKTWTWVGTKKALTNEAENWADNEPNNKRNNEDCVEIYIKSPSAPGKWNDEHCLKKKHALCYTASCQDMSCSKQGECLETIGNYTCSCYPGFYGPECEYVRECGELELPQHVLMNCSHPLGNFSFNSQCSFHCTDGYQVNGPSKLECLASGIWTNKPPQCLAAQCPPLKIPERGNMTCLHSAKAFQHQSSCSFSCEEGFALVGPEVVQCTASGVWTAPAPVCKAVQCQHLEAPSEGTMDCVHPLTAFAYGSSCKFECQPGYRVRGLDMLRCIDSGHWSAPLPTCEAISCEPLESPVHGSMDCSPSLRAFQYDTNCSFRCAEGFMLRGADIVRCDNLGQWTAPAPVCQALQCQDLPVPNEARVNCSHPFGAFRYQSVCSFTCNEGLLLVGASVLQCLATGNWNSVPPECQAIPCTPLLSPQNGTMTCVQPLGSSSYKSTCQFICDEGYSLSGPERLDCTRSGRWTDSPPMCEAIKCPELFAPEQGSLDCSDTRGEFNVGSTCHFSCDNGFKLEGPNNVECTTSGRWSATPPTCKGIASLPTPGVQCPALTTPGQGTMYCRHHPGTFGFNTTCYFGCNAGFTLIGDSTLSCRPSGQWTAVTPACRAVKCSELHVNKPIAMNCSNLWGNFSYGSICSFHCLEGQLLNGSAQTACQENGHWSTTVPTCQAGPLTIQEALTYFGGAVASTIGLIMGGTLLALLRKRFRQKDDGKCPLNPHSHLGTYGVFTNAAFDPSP
Description: cell-based or functional assay.

T1 sequence (P16109 with tags, fused parts or gaps limits assumed): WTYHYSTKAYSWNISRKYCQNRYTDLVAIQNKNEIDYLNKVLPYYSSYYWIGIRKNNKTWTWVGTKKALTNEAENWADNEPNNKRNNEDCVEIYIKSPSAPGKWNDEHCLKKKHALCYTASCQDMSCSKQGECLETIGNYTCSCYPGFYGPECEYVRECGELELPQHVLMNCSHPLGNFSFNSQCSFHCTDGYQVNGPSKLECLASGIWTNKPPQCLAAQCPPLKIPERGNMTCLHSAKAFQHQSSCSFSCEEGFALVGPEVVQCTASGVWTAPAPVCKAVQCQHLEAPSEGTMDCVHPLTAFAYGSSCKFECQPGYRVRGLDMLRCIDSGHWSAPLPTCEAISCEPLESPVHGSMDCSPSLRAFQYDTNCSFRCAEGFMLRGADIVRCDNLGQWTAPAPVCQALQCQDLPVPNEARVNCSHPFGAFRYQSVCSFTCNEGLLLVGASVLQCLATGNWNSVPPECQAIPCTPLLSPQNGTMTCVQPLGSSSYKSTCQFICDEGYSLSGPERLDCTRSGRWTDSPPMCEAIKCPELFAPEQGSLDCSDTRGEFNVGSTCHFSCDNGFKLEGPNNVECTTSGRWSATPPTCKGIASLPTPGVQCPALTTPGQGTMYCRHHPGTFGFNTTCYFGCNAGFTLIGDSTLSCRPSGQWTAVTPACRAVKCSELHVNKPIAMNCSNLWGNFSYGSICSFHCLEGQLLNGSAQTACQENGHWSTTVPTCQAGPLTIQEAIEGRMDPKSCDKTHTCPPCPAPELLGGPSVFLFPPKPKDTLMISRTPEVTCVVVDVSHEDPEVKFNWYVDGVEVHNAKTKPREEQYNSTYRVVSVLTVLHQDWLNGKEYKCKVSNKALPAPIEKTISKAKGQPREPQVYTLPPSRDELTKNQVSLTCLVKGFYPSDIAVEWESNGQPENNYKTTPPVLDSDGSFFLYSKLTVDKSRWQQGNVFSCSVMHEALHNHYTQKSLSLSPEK

Broadly, the IC50 is the concentration needed to halve the response being measured. Regarding “H-DVEWVDVSY-OH [Pstar, H2N-DVEWVDVSY-COOH]”, the IC50 at human P-selectin/IgG-Fc was found to be 7 µM.

B1: human P-selectin binding peptide H2N-…-COOH (Pstar) (peptide)
peptide: DVEWVDVSY
modifications: not checked
As to B1, the IC50 in assay [1] amounted to 7 µM.

B2: P500 liposomes: liposomes carrying 500 DSPE-PEG3400-(125I)-Pstar conjugates per liposome (other)
peptide: DVEWVDVSY
modifications: not fully specified; also: 125I label (ICl method)
notes: About 70 nm EYPC/cholesterol liposome; The peptide-PEG-lipid conjugate is anchored in its surface together with DSPE-PEG2000 (5 mole % in total); also called LP500
For the molecule B2, in assay [2], the IC50 was 0.00034 µM. Moreover, the “relative transfection (glucocorticoid responsive element-driven Firefly luciferase, corrected by Renilla luciferase) in CHO-P cells” value in assay [3] was found to be 5 fold.

B3: P100 liposomes: liposomes carrying 100 DSPE-PEG3400-(125I)-Pstar conjugates per liposome (other)
peptide: DVEWVDVSY
modifications: not fully specified; also: 125I label (ICl method)
notes: About 70 nm EYPC/cholesterol liposome; The peptide-PEG-lipid conjugate is anchored in its surface together with DSPE-PEG2000 (5 mole % in total); also called LP100
In the case of B3, the IC50 in assay [2] stood at 0.00078 µM.
